Our source for the Km values is ChEMBL document CHEMBL2074244, “Loss of ATP-dependent transport activity in pseudoxanthoma elasticum-associated mutants of human ABCC6 (MRP6)” (J Biol Chem, 2002).

Substrate in data set [1]: NC(CCC(=O)NC(CNCC(=O)O)CSCCN1C(=O)C=CC1=O)C(=O)O
As to the kind of experiment: (§1) TP_TRANSPORTER: uptake in membrane vesicles from MRP6-expressing Sf9 cells. In kind it is functional, cell membranes, Membrane vesicle.

Substrate in data set [2]: CCCCC/C=C\C\C=C/C=C/C=C/[C@@H](SC[C@@H](NC(=O)CC[C@H](N)C(=O)O)C(=O)NCC(=O)O)[C@@H](O)CCCC(=O)O
The description is as §1. Type of data set: functional, cell membranes, Membrane vesicle.

B1: ATP-binding cassette sub-family C member 6 (Homo sapiens) (protein)
chain: MAAPAEPCAGQGVWNQTEPEPAATSLLSLCFLRTAGVWVPPMYLWVLGPIYLLFIHHHGRGYLRMSPLFKAKMVLGFALIVLCTSSVAVALWKIQQGTPEAPEFLIHPTVWLTTMSFAVFLIHTERKKGVQSSGVLFGYWLLCFVLPATNAAQQASGAGFQSDPVRHLSTYLCLSLVVAQFVLSCLADQPPFFPEDPQQSNPCPETGAAFPSKATFWWVSGLVWRGYRRPLRPKDLWSLGRENSSEELVSRLEKEWMRNRSAARRHNKAIAFKRKGGSGMKAPETEPFLRQEGSQWRPLLKAIWQVFHSTFLLGTLSLIISDVFRFTVPKLLSLFLEFIGDPKPPAWKGYLLAVLMFLSACLQTLFEQQNMYRLKVLQMRLRSAITGLVYRKVLALSSGSRKASAVGDVVNLVSVDVQRLTESVLYLNGLWLPLVWIVVCFVYLWQLLGPSALTAIAVFLSLLPLNFFISKKRNHHQEEQMRQKDSRARLTSSILRNSKTIKFHGWEGAFLDRVLGIRGQELGALRTSGLLFSVSLVSFQVSTFLVALVVFAVHTLVAENAMNAEKAFVTLTVLNILNKAQAFLPFSIHSLVQARVSFDRLVTFLCLEEVDPGVVDSSSSGSAAGKDCITIHSATFAWSQESPPCLHRINLTVPQGCLLAVVGPVGAGKSSLLSALLGELSKVEGFVSIEGAVAYVPQEAWVQNTSVVENVCFGQELDPPWLERVLEACALQPDVDSFPEGIHTSIGEQGMNLSGGQKQRLSLARAVYRKAAVYLLDDPLAALDAHVGQHVFNQVIGPGGLLQGTTRILVTHALHILPQADWIIVLANGAIAEMGSYQELLQRKGALMCLLDQARQPGDRGEGETEPGTSTKDPRGTSAGRRPELRRERSIKSVPEKDRTTSEAQTEVPLDDPDRAGWPAGKDSIQYGRVKATVHLAYLRAVGTPLCLYALFLFLCQQVASFCRGYWLSLWADDPAVGGQQTQAALRGGIFGLLGCLQAIGLFASMAAVLLGGARASRLLFQRLLWDVVRSPISFFERTPIGHLLNRFSKETDTVDVDIPDKLRSLLMYAFGLLEVSLVVAVATPLATVAILPLFLLYAGFQSLYVVSSCQLRRLESASYSSVCSHMAETFQGSTVVRAFRTQAPFVAQNNARVDESQRISFPRLVADRWLAANVELLGNGLVFAAATCAVLSKAHLSAGLVGFSVSAALQVTQTLQWVVRNWTDLENSIVSVERMQDYAWTPKEAPWRLPTCAAQPPWPQGGQIEFRDFGLRYRPELPLAVQGVSFKIHAGEKVGIVGRTGAGKSSLASGLLRLQEAAEGGIWIDGVPIAHVGLHTLRSRISIIPQDPILFPGSLRMNLDLLQEHSDEAIWAALETVQLKALVASLPGQLQYKCADRGEDLSVGQKQLLCLARALLRKTQILILDEATAAVDPGTELQMQAMLGSWFAQCTVLLIAHRLRSVMDCARVLVMDKGQVAESGSPAQLLAQKGLFYRLAQESGLV
Take B1: the Michaelis constant (Km) in data set [1] is 282 µM; in data set [2], 0.6 µM.

Broadly, the Km is the substrate concentration at which the rate is half of its maximum.
